Reference: the Human Domainome abundance scans (Beltran et al. 2025)
± gives the uncertainty stated by the source.

B1: Formin-binding protein 4, residues 200 to 261; numbered along this chain, Q8N3X1 (parent)
chain: SGWQYDTQCSLAGVGIEMGDWQEVWDENTGCYYYWNTQTNEVTWELPQYLATQVQGLQHYQP

Variants of: B1
Assay: abundance fitness (aPCA) (normalised: wild type 0, dead -1); higher = more abundant; growth selection in yeast, the domain comes from the species named
Conditions: Homo sapiens

Abundance fitness, by site and new letter:
E45: F -0.398 ± 0.14, R -0.165 ± 0.074, K -0.069 ± 0.15, Y -0.484 ± 0.16, Q 0.05 ± 0.16, G -0.321 ± 0.082, T -0.076 ± 0.12, D -0.149 ± 0.12, I -0.089 ± 0.13, W -0.598 ± 0.13, A -0.213 ± 0.095, N -0.282 ± 0.14, P -0.552 ± 0.15, H -0.338 ± 0.16, V -0.294 ± 0.084, L -0.21 ± 0.069, M -0.325 ± 0.14
E41: R -0.158 ± 0.078, A -0.109 ± 0.086, N -0.364 ± 0.18, T -0.283 ± 0.084, F -0.556 ± 0.14, M -0.34 ± 0.098, Q 0.014 ± 0.076, I -0.324 ± 0.17, D -0.268 ± 0.19, G -0.471 ± 0.1, H -0.472 ± 0.2, K -0.081 ± 0.092, L -0.111 ± 0.059, Y -0.231 ± 0.13, S -0.349 ± 0.082, W -0.378 ± 0.11, P -0.776 ± 0.12, V -0.323 ± 0.09, C -0.409 ± 0.15
T43: S -0.021 ± 0.063, M -0.317 ± 0.088, R -0.262 ± 0.068, E -0.053 ± 0.076, Q -0.018 ± 0.1, A -0.1 ± 0.076, C -0.02 ± 0.096, W -0.584 ± 0.11, Y -0.332 ± 0.14, L -0.092 ± 0.061, G -0.401 ± 0.072, F -0.34 ± 0.12, K -0.172 ± 0.092, N -0.263 ± 0.17
W44: E 0.078 ± 0.086, L -0.226 ± 0.062, D -0.429 ± 0.15, N 0.068 ± 0.12, I -0.503 ± 0.17, A -0.221 ± 0.083, K 0.043 ± 0.088, F -0.121 ± 0.087, R 0.03 ± 0.054, Q -0.061 ± 0.076, V -0.127 ± 0.069, Y 0.089 ± 0.14, T -0.077 ± 0.079, H -0.236 ± 0.14, G -0.135 ± 0.065, C -0.078 ± 0.096, S -0.037 ± 0.064, P -0.218 ± 0.084
T37: L -0.133 ± 0.062, H -0.009 ± 0.12, Q 0.01 ± 0.093, G -0.135 ± 0.07, I -0.022 ± 0.085, V -0.058 ± 0.065, R -0.111 ± 0.071, N -0.166 ± 0.1, K 0.09 ± 0.094, S 0.019 ± 0.064, Y -0.243 ± 0.14
T39: I -0.354 ± 0.1, M -0.386 ± 0.1, A -0.411 ± 0.098, H -0.34 ± 0.16, R -0.306 ± 0.06, Q -0.226 ± 0.12, W -0.568 ± 0.094, V -0.877 ± 0.14, E -0.37 ± 0.13, N -0.093 ± 0.11, P -0.873 ± 0.12, L -0.461 ± 0.066, K -0.123 ± 0.089, D -0.151 ± 0.18, S 0.017 ± 0.058, Y -0.579 ± 0.15, C -0.307 ± 0.094, G -0.362 ± 0.097, F -0.577 ± 0.13
L46: I -0.245 ± 0.15, E -0.525 ± 0.12, F -0.46 ± 0.17, V -0.303 ± 0.074, W -0.493 ± 0.1, M -0.224 ± 0.088, K -0.631 ± 0.12, A -0.461 ± 0.092, R -0.467 ± 0.085, T -0.229 ± 0.091, Q -0.264 ± 0.14, H -0.626 ± 0.35, G -0.787 ± 0.11, C -0.309 ± 0.15, P -0.454 ± 0.12, S -0.779 ± 0.12, D -1.08 ± 0.34, N -0.625 ± 0.4, Y -0.059 ± 0.16
P47: D -1.17 ± 0.28, C -1.22 ± 0.32, A -0.842 ± 0.15
V42: W -0.457 ± 0.14, S 0.02 ± 0.065, K 0.084 ± 0.11, I -0.188 ± 0.11, Y -0.453 ± 0.14, E 0.063 ± 0.081, N -0.203 ± 0.16, M 0.12 ± 0.07, P -0.415 ± 0.11, Q 0.308 ± 0.094, L -0.202 ± 0.055, F -0.148 ± 0.096, R 0.095 ± 0.067, C -0.242 ± 0.13
Q38: H -0.022 ± 0.25, R 0.042 ± 0.064, M -0.11 ± 0.092, Y 0.128 ± 0.26, V -0.126 ± 0.074, P -0.541 ± 0.14, D 0.247 ± 0.16, N -0.266 ± 0.25, W -0.216 ± 0.088, L -0.133 ± 0.063, F -0.346 ± 0.17, E -0.081 ± 0.08, T 0.254 ± 0.082, S -0.019 ± 0.069, K 0.138 ± 0.11, I -0.086 ± 0.14, G -0.077 ± 0.064
N40: M -0.298 ± 0.091, C -0.505 ± 0.13, Q -0.056 ± 0.082, R -0.157 ± 0.06, W -0.34 ± 0.082, S -0.057 ± 0.063, H -0.032 ± 0.11, V -0.556 ± 0.081, Y -0.564 ± 0.17, F -0.37 ± 0.12, I -0.607 ± 0.19, E -0.04 ± 0.075, G -0.037 ± 0.062, A -0.08 ± 0.07, P -0.931 ± 0.15, T -0.096 ± 0.097
